Assay results: patent US8663642B2, “Anti-CD70 antibody-drug conjugates and their use for the treatment and prevention of cancer and immune disorders” (priority 2003, dated 2014)

Legend:
CD70^− Hs 835.T cells = assay: 3H-TdR proliferation assay, CD70-negative RCC line; type: cell-based, human; conditions: CD70^− Hs 835.T cells
Caki-2 cells = assay: 3H-TdR proliferation assay, RCC lines; type: cell-based, human
WSU-NHL cells = assay: 3H-TdR proliferation assay, hematologic lines; type: cell-based, human; conditions: 96 hours, 3H-TdR last 16 hours
Experimental: (§1) FIG. 5: Effects of anti-CD70 ADCs on the proliferation of transformed hematologic cell lines. A subset of the CD70^+ cell lines shown in FIG. 4 and the CD70^− Jurkat cell line were tested for their sensitivity toward 1F6 ADCs. Graded doses of the 1F6-vcMMAE, 1F6-vcAFP, or the corresponding non-binding control IgG (IgG) ADCs were added to cells at the initiation of culture. Cells were exposed to the ADCs continuously for a total of 96 hours. Proliferation was determined by pulsing with ^3H-TdR during the last 16 hours of incubation. The upper panels show the response of the WSU-NHL and Jurkat lines. The lower panel summaries the responses by the tested cell lines to 1F6-vcMMAE and 1F6-vcAFP in form of IC50s.
(§2) A subset of the CD70^+ hematologic lines listed in FIG. 4 was tested for sensitivity to the 1F6 ADCs. These lines were seeded at 5,000 cells per well in 96-well plates in quadruplicates in a total of 200 μl of culture medium containing graded doses of the ADCs as indicated in the FIG. 5 and the accompanying figure legend. Proliferation assays were carried out for 96 hours. Tritiated thymidine (^3H-TdR) incorporation during the last 16 hours of incubation was used to assess DNA synthesis. The responses of a CD70^+ B lymphoma cell line WSU-NHL and the CD70^− Jurkat cells are shown in the upper panels of FIG. 5. […] Proliferation inhibitory effects were apparent when the ADCs were used at concentrations higher than 0.005 μg/ml. […] On the other hand, proliferation of the CD70^− Jurkat acute T leukemia cell line was not affected by either 1F6-vcMMAE or 1F6-vcAFP at concentrations as high as 2 μg/ml. […] The responses of other CD70^+ cell lines tested are summarized in the lower panel of FIG. 5. […] Moreover, EBV-LCLs are phenotypically very similar to activated normal B cells.

CD70^− Jurkat cells = assay: 3H-TdR proliferation assay, hematologic lines; type: cell-based, human; conditions: at concentrations as high as 2 μg/ml
Experimental: as §1, §2

CD70^+ RCC lines [1] = assay: 3H-TdR proliferation assay, panel of RCC lines; type: cell-based, human
[2] = tested on: normal kidney epithelial lines RPTEC and HRCE; assay: Proliferation/cytotoxicity on normal kidney epithelial lines; type: cell-based, human
[3] = tested on: CD70^+ CD8^+/Vβ17^+ T cells; assay: In vitro deletion of M1 peptide-specific T cells (flow cytometry, viable counts); type: cell-based, human
Experimental: PBMCs from a normal HLA-A0201donor were stimulated with the M1 peptide for 5 days. 1F6 ADCs or control non-binding IgG (cIgG) ADCs were added to cells to a final concentration of 1 μg/ml. Total viable cell counts were conducted at 24, 48, and 76 hours post drug addition. Total numbers of CD8^+/Vβ17^+ for each culture condition are calculated (upper panel).
FIG. 19: Dose-response comparison of anti-CD70 ADCs on deletion of antigen-specific CD8^+/Vβ17^+ cells. PBMCs from a normal HLA-A0201donor were stimulated with the M1 peptide for 5 days. 1F6 ADCs or control non-binding IgG (cIgG) ADCs were given to cells to the specified final concentrations. The percentages of CD8^+/Vβ17^+ cells 4 days post ADC addition was determined by flow cytometry as in FIG. 17.
To examine CD70 expression on activated antigen-specific T cells, PBMCs from a normal donor expressing HLA-A0201 were stimulated with the M1 peptide. PBMCs were seeded at 2×10^6 cells/ml with 5 μg/ml of M1 peptide in AIMV medium supplemented with 5% human AB serum. IL-2 (Proleukin, Chiron) and IL-15 (R&D Systems, MN) were added to final concentrations of 20 IU/ml and 5 ng/ml, respectively, once every two days beginning on day 2 after culture initiation. The expansion of CD8^+/Vβ17^+ T cells and induction of CD70 on the CD8^+/Vβ17^+ was followed by three-color flow cytometry. Vβ17^+ T cells were identified by the anti-TCRVβ17 mAb clone E17.5F3 (Beckman Coulter, Miami, Fla.).
PBMCs from a normal donor expressing HLA-A0201 were stimulated with the M1 peptide as described in Example 11. On day 5, cells were harvested, washed, and re-seeded at 0.5-1×10^6 cells/ml (approximately 100,000 of CD8^+/Vβ17^+ T cells) in fresh AIMV medium supplemented with 5% human AB, 20 IU/ml of IL-2, and 5 ng/ml of IL-15. 1F6 or control non-binding IgG (cIgG) ADCs were added to some cultures to a final concentration of 1 μg/ml. Total viable cell counts were conducted 24, 48, and 76 hours after ADC addition. Two-color flow cytometry was conducted to determine the percentages of CD8^+/Vβ17^+ cells among the viable cells. The absolute number of CD8^+/Vβ17^+ T cells in each culture was then calculated. […] The effects of 1F6 ADCs on the CD8^+/Vβ17^− cells were also evaluated.
The potency of three 1F6 ADCs was then compared. HLA-A0201 PBMCs were stimulated with the M1 peptide and re-seeded as described for FIG. 18 with the various ADCs at the indicated concentrations (FIG. 19). The percent of CD8^+/Vβ17^+ T cells after a 96-hour incubation was determined.

[4] = tested on: PBMCs stimulated with irradiated allogeneic CESS cells; assay: Mixed lymphocyte reaction (3H-TdR); type: cell-based, human; conditions: MLR, 5-day culture
Caki-1 cells = assay: 3H-TdR proliferation assay, RCC lines; type: cell-based, human; conditions: Caki-1 cells
Caki-1 tumors = assay: Caki-1 subcutaneous xenograft model of RCC; type: in vivo, nude mice; conditions: Caki-1 xenograft, q4d×4
Description: Tumors were initiated in nude mice by implanting tissue tumor blocks (30 mm^3 in size) containing Caki-1 cells. Treatment began when average tumor size within a treatment group was around 100 mm^3. In the upper panel, treatment for the IgG and 1F6 groups began 17 days post implantation (filled arrow), while treatment for the 1F6-vcAFP and IgG-vcAFP groups began 25 days post implantation (open arrow). Indicated doses of either unconjugated mAbs or their ADCs were given for one course on a q4d×4 schedule.
Using xenografts of the Caki-1 line in nude mice, the […] antitumor activity of 1F6-vcAFP was tested. To establish Caki-1 tumors, nude mice were injected subcutaneously with 5×10^6 Caki-1 cells in 0.2 ml PBS. […] Caki-1-containing tumors were excised from tumor bearing mice and tumor tissue blocks of approximately 30 mm^3 were prepared. Naive nude mice to be used for evaluating in vivo antitumor activity of anti-CD70 ADC were each implanted subcutaneously with one tumor block of 30 mm^3. […] Treatment was initiated when the average tumor size within a group was approximately 100 mm^3 (FIG. 12, arrows).

[5] = tested on: tetanus toxoid-specific T cells; type: cell-based, human
[6] = tested on: Hodgkin's disease cell lines; assay: Cytotoxic activity against Hodgkin's disease cell lines (panel); type: cell-based, human
Experimental: Cell surface CD70 expression was also evaluated in panels of Hodgkin's disease (Table 4) and glioblastoma cell lines (Table 5). The copy number of CD70 molecules expressed by each cell line was determined by quantitative flow cytometry using the QIFIKit® (Dako, Carpinteria, Calif.). The response of these cells to anti-CD70 ADC-mediated cytotoxicity was determined.

[7] = tested on: CD70-expressing multiple myeloma cells; assay: Cytotoxic activity against multiple myeloma cell lines (panel); type: cell-based, human
Experimental: Cell surface CD70 expression was evaluated in a panel of multiple myeloma cell lines (Table 3). Copy number of CD70 molecules expressed by each cell line was determined by quantitative flow cytometry using the QIFIKit® (Dako, Carpinteria, Calif.). Response of these cells to anti-CD70 ADC-mediated cytotoxicity was determined.

Vβ17^− T cells = assay: Anti-CD3 plus anti-CD28 re-stimulation assay of bystander T cells (3H-TdR); type: cell-based, human; conditions: Vβ17^− T cells from culture treated with 1 μg/ml, 96 hours, no exogenous IL-2
Description: PBMCs from a normal HLA-A0201donor were stimulated with the M1 peptide for 5 days.

CD70^+ RCC lines [8] = conditions: in 5 of 7 CD70^+ RCC lines tested
Experimental: To examine the responses of CD70^+ RCC lines to 1F6 ADCs, cells were seeded between 1,000 to 3,000 cells per well in 100 μl of medium. An additional 100 μl of culture medium containing graded doses of ADCs were added to the wells after cells were allowed to attached overnight. In addition to DNA synthesis, cell viability, as a reflection of the cytotoxic activities of ADCs, was also assayed by the reduction of alamarBlue™ (Biosource International, Camarillo, Calif.). The alamarBlue™ dye was added at a one to four dilution during the last 4 to 24 hours of the incubation. Dye reduction was assessed by fluorescence spectrometry using the excitation and emission wavelengths of 535 nm and 590 nm, respectively. For analysis, the amount of ^3H-TdR incorporated or the extent of alamarBlue™ reduction by the treated cells was compared to that of the untreated control cells.

B1: 1F6-vcMMAE: anti-CD70 mAb 1F6 linked to monomethyl auristatin E by the valine-citrulline (vc) dipeptide linker (conjugate)
VH: QIQLVQSGPEVKKPGETVKISCKASGYTFTNYGMNWVKQAPGKGLKWMGWINTYTGEPTYADAFKGRFAFSLETSASTAYLQINNLKNEDTATYFCARDYGDYGMDYWGQGTSVTVSS
VL: DIVLTQSPASLAVSLGQRATISCRASKSVSTSGYSFMHWYQQKPGQPPKLLIYLASNLESGVPARFSGSGSGTDFTLNIHPVEEEDAATYYCQHSREVPWTFGGGTKLEIKR
modifications: non-natural residues
notes: anti-CD70 mAb 1F6 linked to monomethyl auristatin E by the valine-citrulline (vc) dipeptide linker
CD70^− Hs 835.T cells
  activity on proliferation: not active
Caki-2 cells
  IC50, proliferation: lower than 20 ng/ml
WSU-NHL cells
  effect on the proliferation of WSU-NHL cells: dose-dependent inhibitory effects
CD70^− Jurkat cells
  effect on proliferation of Jurkat cells: not affected
CD70^+ RCC lines [1]; other CD70^+ RCC lines (not Caki-1, Caki-2)
  activity on proliferation: not active
[2]
  activity on proliferation: not active
[3]; 1 μg/ml, 76 hours after ADC addition
  number of CD8^+/Vβ17^+ T cells: approximately 400,000
[3]; 96-hour incubation
  inhibition of CD8^+/Vβ17^+ T cell expansion: dose-dependent inhibition
  relative inhibitory activity: weaker than both 1F6-vcAFP and 1F6-vcMMAF
[4]
  effect on T cell proliferation: substantially inhibited T cell proliferation
Caki-1 cells
  IC50, proliferation: lower than 20 ng/ml

B2: 1F6: anti-human CD70 monoclonal antibody obtained from the Central Laboratory of the Netherlands Red Cross Blood Transfusion Service (antibody, V domains shown)
VH: B1 VH
VL: B1 VL
modifications: Mature 1F6 Heavy Chain Variable region from Figure 1; Mature 1F6 Light Chain Variable Region from Figure 1
notes: anti-human CD70 monoclonal antibody obtained from the Central Laboratory of the Netherlands Red Cross Blood Transfusion Service
Caki-1 tumors
  therapeutic activity / tumor growth: Very little therapeutic activity
[5]
  effect on tetanus toxoid-induced T cell proliferation: did not show a significant effect

B3: c1F6-vcMMAF4: chimeric 1F6 (c1F6)-vcMMAF4 anti-CD70 ADC (conjugate)
VH: B1 VH
VL: B1 VL
modifications: non-natural residues
notes: chimeric 1F6 (c1F6)-vcMMAF4 anti-CD70 ADC
[6]
  IC50 values, range over the panel: 0.41 to 42 ng/mL
[7]
  IC50 values, range over the panel: 1.2 to 160 ng/mL

B4: 1F6-vcMMAF: anti-CD70 mAb 1F6 linked to monomethyl auristatin phenylalanine by the valine-citrulline (vc) dipeptide linker (conjugate)
VH: B1 VH
VL: B1 VL
modifications: non-natural residues
notes: anti-CD70 mAb 1F6 linked to monomethyl auristatin phenylalanine by the valine-citrulline (vc) dipeptide linker
CD70^+ RCC lines [1]; CD70^+ RCC lines tested
  IC50 values for proliferation inhibition: lower than 30 ng/ml
Vβ17^− T cells
  response to anti-CD3 plus anti-CD28 re-stimulation: comparable to that of the untreated cells
CD70^+ RCC lines [8]
  IC50 values to induce cytotoxicity: lower than 30 ng/ml
[3]; 1 μg/ml added on day 5, 4 days, untreated 47%
  CD8^+/Vβ17^+ T cells in the culture: 14%
[3]; 96-hour incubation
  inhibition of CD8^+/Vβ17^+ T cell expansion: dose-dependent inhibition
